Results as given in paper PMC5310709.
Where two headings read alike, the source gives them in different places.

Experiments:
Experiment in all cases: cross-linking
[1] = biological target: Z protein with N-epsilon-fluoroacetyllysine at residue 24, fused to maltose binding protein
[2] = biological target: Z protein with N-epsilon-fluoroacetyllysine at residue 24, fused to maltose binding protein; remark: listed apart in the source
[3] = biological target: Z protein with Cys at residue 6, fused to maltose binding protein
[4] = biological target: Z protein with Cys at residue 6, fused to maltose binding protein; remark: listed apart in the source
[5] = biological target: Z protein with N-epsilon-fluoroacetyllysine at residue 6, fused to maltose binding protein
[6] = biological target: Z protein with N-epsilon-fluoroacetyllysine at residue 6, fused to maltose binding protein; remark: listed apart in the source

Substance: Zspa Affibody (Afb) with Cys at position 7 (designed binder)
- crosslinking yield [1]: 34%
- crosslinking yield [2]: 12%

Substance: Zspa Affibody (Afb) with N-epsilon-fluoroacetyllysine at position 36 (designed binder)
- crosslinking efficiency [3]: 88%
- crosslinking yield [4]: 33%

Substance: Zspa Affibody (Afb) with Cys at position 36 (designed binder)
- crosslinking yield [5]: 64%
- crosslinking yield [6]: 24%
